# Laboratory results published in US20140295012A1, “LATENT HUMAN IMMUNODEFICIENCY VIRUS REACTIVATION” (priority 2011, published 2014).
# B1: HRF: flagellin polypeptide from Massilia timonae (SEQ ID NO:10), used as bacterial culture supernatant (protein)
# chain: MASVINTNVPSLNSQRNLSTSQAQLNTSIQRLSSGMRINSAKDDAAGLAISDRMNSQIKGMTQATRNANDGVSMAQTAEGALSSSGDILQRIRELAVQSSNSSNSASDRKALQTEVTQLSSELNRIANTTEFNGQKLMDGTLGTANFQVGANAGQLISMTGANFNTSVYGNNQIAGDAAKAAATTSAAATGAFTISGYLGTSAAINTTDADTAKTIAASINNVTGDTGVTATARTDSFLKSAGGAHTMSLASDNSGTGEAVDISFTVGDGGDTADDYAAAISAFNAQTAKTGVTAEYDAVEKGLKLTNSAGENISLTNKAGSADIDMDTYAADGALMASALTLEAGDVGVANGRVTMDSEKSFSVAEGTDTGFELADSSALKSVAKIDISDFEGAQEAIKVADAALSAVNSQRAEYGALQSRFESAISNLSSSTENLSASRSRIVDTDFAAETAKMTRGQILQQAGTSMLAQANSLPNGVLSLLRG
# Experiments:
# Format in all cases: cell-based
# [1] = system: latently HIV-1 infected monocytic THP89GFP cells; experiment: HIV-1 reactivation in latently infected monocytic THP89GFP cells
# NF-κB p50 and p65 = NF-κB p50 and p65 activity in PBMCs (TransAM NF-κB family ELISA); conditions: compared to PHA-L
# Experimental: FIGS. 8A-8C show HRF induced NF-κB and cytokine expression in peripheral blood mononuclear cells (PBMCs). […] PBMCs were activated with optimal concentrations of either PHA-L or with HRF. Cells were harvested at the indicated time points. Nuclear extracts were generated and NF-κB p50 activity and NF-κB p65 activity were determined using the TransAM™ NF-κB family ELISA kit (Active Motif). […] PBMCs from four different healthy donors were stimulated with an anti-CD3/CD28 antibody combination and infected with a GFP reporter virus on day 4 post-stimulation. HIV-1 replication was monitored in the absence (C) or presence of HRF for 5 days and the achieved HIV-1 infection levels were determined by flow cytometric analysis for the percentage of EGFP-positive cells. All infections were normalized to the infection level in the untreated culture and the histogram represents the mean infection levels obtained in 4 donor cultures±standard deviation. […] Culture supernatants were collected after 24 hours and the concentrations of a panel of cytokines was determined by BioPlex analysis. […]
# NF-κB activity in nuclear extracts was quantified using the TransAM™ NF-κB family ELISA kit from Active Motif, Inc. (Carlsbad, Calif.) according to the manufacturer's instructions.
# [2] = system: NF-κB dependent promoters in 293T cells; experiment: NF-κB dependent promoter constructs transfected into 293T cells (EGFP expression)
# Experimental: (§1) FIGS. 6A-6C show HRF triggers suboptimal functional induction of NF-κB dependent gene expression. […] The HIV-1 reactivating kinetics were determined by stimulating CA5 T cells with optimal concentrations of HRF, phorbol 12-myristate 13-acetate (PMA) and tumor necrosis factor-α (TNF-α) and analyzing HIV-1 reactivation as a function of EGFP-expression over a period of 48 hours. Data for all agents are depicted as the percentage of EGFP-positive cells in the total cell population. […] To test the ability of HRF to mediate Tat-independent activation of the HIV-1 LTR, NOMI cells (HIV-1 reporter cell line with an integrated LTR-EGFP construct) were stimulated with increasing concentrations of PMA (0.01-10 ng/ml), TNF-α (0.003-30 μg/ml) and HRF supernatant (0.3-100 μl). The level of LTR-induction was then measured as EGFP-expression detectable after 24 hours as determined by flow cytometric analysis. Arrows indicate the concentrations at which the respective stimulus would have triggered full HIV-1 reactivation in the latently HIV-1 infected CA5 T cell line. […] 293T cells were transfected with several NF-κB dependent promoter constructs and then stimulated with either TNF-α (10 μg/ml) or HRF (25 μl). Promoter induction was measured as total EGFP expression. (NF-κB:pNF-κB-d2EGFP; LTR:HIV-1 LTR-GFP; IL-8:pIL-8 GFP; TNF:human TNF-GFP; MSCV:murine stem cell virus LTR driven GFP; no NF-κB responsive elements).
# The utilized EGFP reporter virus HIV-1 NLENG1-IRES has been described elsewhere (Kutsch et al., J. Virol. 76:8776-86 (2002); Levy et al., Proc. Natl. Acad. Sci. USA 101:4204-9 (2004)). The reporter plasmid pNF-κB-d2EGFP was purchased from Clontech (Mountain View, Calif.). The LTR-GFP construct and the IL-8 reporter construct have been described earlier (Choi et al., Mol. Cell. Biol. 22:724-36 (2002)). The TNF-promoter construct was generated by cloning the human TNF-α promoter element defined by primer pair 5′-BglII; 5′-[…] […]-3′ (SEQ ID NO:2) and 3′-AgeI; 5′-[…] […]-3′ (SEQ ID NO:3) into pd2EGFP (Clontech). MSCV-GFP was generated by cloning the EGFP-gene into retroviral pMSCV-puro vector (Clontech).
# HIV-1 LTR = experiment: Tat-independent activation of integrated LTR-GFP construct in NOMI reporter T cells; conditions: 24 hours
# Experimental: as §1
# As the NF-κB pathway has been recognized as vital to HIV-1 activation, the ability of HRF to trigger NF-κB activation was investigated. It was initially determined that HRF had the ability to stimulate Tat independent activation of an integrated LTR-GFP construct in NOMI reporter T cells.
molecule,measurement,setting,value
B1,HIV-1 reactivation,[1],reactivated latent HIV-1 infection
same,NF-κB p50 and p65 activity peak,NF-κB p50 and p65,"very high, but short-lived"
same,"GFP expression driven by NF-κB responsive promoter constructs (IL-8, TNF-α, HIV-1 LTR, three consensus NF-κB sites)",[2],weak GFP expression
same,GFP expression of construct under control of murine stem cell virus LTR (no NF-κB responsive element),[2],Neither TNF-α nor HRF influenced GFP expression
same,Tat-independent activation of integrated LTR-GFP construct (GFP expression),HIV-1 LTR,modest increase in GFP expression
